# Results: patent US20230035659A1, “Compositions and Methods for TTR Gene Editing and Treating ATTR Amyloidosis Comprising a Corticosteroid or Use Thereof” (Intellia Therapeutics, Inc., priority 2019, published 2023)
# Strand notation (5' to 3'): a small letter for the sugar, then the base; units joined by * are phosphorothioate-linked, units joined directly phosphodiester-linked; [ ] holds rarer units or linkages, { } end groups; capitals alone tell only the bases. m = 2'-O-methyl; r = 2'-OH (RNA)
# B1: G000506: TTR Cyno specific sgRNA modified sequence, SEQ ID NO: 118; guide sequence of CR005366 (nucleic acid)
# guide: mA*mU*mA*rCrCrArGrUrCrCrArGrCrGrArGrGrCrArGrGrUrUrUrUrArGrAmGmCmUmAmGmAmAmAmUmAmGmCrArArGrUrUrArArArArUrArArGrGrCrUrArGrUrCrCrGrUrUrArUrCrAmAmCmUmUmGmAmAmAmAmAmGmUmGmGmCmAmCmCmGmAmGmUmCmGmGmUmGmCmU*mU*mU*mU
# B2: G000505: TTR Cyno specific sgRNA modified sequence, SEQ ID NO: 117; guide sequence of CR005365 (nucleic acid)
# guide: mC*mA*mU*rUrGrArCrArGrCrArGrGrArCrUrGrCrCrUrGrUrUrUrUrArGrAmGmCmUmAmGmAmAmAmUmAmGmCrArArGrUrUrArArArArUrArArGrGrCrUrArGrUrCrCrGrUrUrArUrCrAmAmCmUmUmGmAmAmAmAmAmGmUmGmGmCmAmCmCmGmAmGmUmCmGmGmUmGmCmU*mU*mU*mU
# B3: G000510: TTR Cyno specific sgRNA modified sequence, SEQ ID NO: 122; guide sequence of CR005370 (nucleic acid)
# guide: mA*mC*mU*rUrGrUrCrUrUrCrUrCrUrArUrArCrCrCrArGrUrUrUrUrArGrAmGmCmUmAmGmAmAmAmUmAmGmCrArArGrUrUrArArArArUrArArGrGrCrUrArGrUrCrCrGrUrUrArUrCrAmAmCmUmUmGmAmAmAmAmAmGmUmGmGmCmAmCmCmGmAmGmUmCmGmGmUmGmCmU*mU*mU*mU
# B4: G000509: TTR Cyno specific sgRNA modified sequence, SEQ ID NO: 121; guide sequence of CR005369 (nucleic acid)
# guide: mA*mA*mA*rGrUrUrCrUrArGrArUrGrCrCrGrUrCrCrGrGrUrUrUrUrArGrAmGmCmUmAmGmAmAmAmUmAmGmCrArArGrUrUrArArArArUrArArGrGrCrUrArGrUrCrCrGrUrUrArUrCrAmAmCmUmUmGmAmAmAmAmAmGmUmGmGmCmAmCmCmGmAmGmUmCmGmGmUmGmCmU*mU*mU*mU
# B5: G000571: TTR sgRNA modified sequence, Human, SEQ ID NO: 112; guide sequence of CR005301 (nucleic acid)
# guide: mG*mU*mC*rArCrArGrArArArCrArCrUrCrArCrCrGrUrGrUrUrUrUrArGrAmGmCmUmAmGmAmAmAmUmAmGmCrArArGrUrUrArArArArUrArArGrGrCrUrArGrUrCrCrGrUrUrArUrCrAmAmCmUmUmGmAmAmAmAmAmGmUmGmGmCmAmCmCmGmAmGmUmCmGmGmUmGmCmU*mU*mU*mU
# Tests used:
# TTR [1] = assay: TTR editing dose response (EC50, maximum editing) in primary human hepatocytes treated with LNP formulated U-depleted Spy Cas9 mRNA and sgRNAs; format: cell-based
# Procedure: (§1) Primary liver hepatocytes. Primary human liver hepatocytes (PHH) and primary cynomolgus liver hepatocytes (PCH) (Gibco) were cultured per the manufacturer's protocol (Invitrogen, protocol 11.28.2012). In brief, the cells were thawed and resuspended in hepatocyte thawing medium with supplements (Gibco, Cat. CM7000) followed by centrifugation at 100 g for 10 minutes for human and 80 g for 4 minutes for cyno. The supernatant was discarded and the pelleted cells resuspended in hepatocyte plating medium plus supplement pack (Invitrogen, Cat. A1217601 and CM3000). Cells were counted and plated on Bio-coat collagen I coated 96-well plates (ThermoFisher, Cat. 877272) at a density of 33,000 cells/well for human or 60,000 cells/well for cyno (or 65,000 cells/well when assaying effects on TTR protein, described further below). Plated cells were allowed to settle and adhere for 6 or 24 hours in a tissue culture incubator at 37° C. and 5% CO2 atmosphere. After incubation cells were checked for monolayer formation and media was replaced with hepatocyte culture medium with serum-free supplement pack (Invitrogen, Cat. A1217601 and CM4000).
# (§2) For LNPs prepared using the cross-flow technique, the LNPs were formed by impinging jet mixing of the lipid in ethanol with two volumes of RNA solutions and one volume of water. The lipid in ethanol is mixed through a mixing cross with the two volumes of RNA solution. A fourth stream of water is mixed with the outlet stream of the cross through an inline tee. (See WO2016010840 FIG. 2.) The LNPs were held for 1 hour at room temperature, and further diluted with water (approximately 1:1 v/v). Diluted LNPs were concentrated using tangential flow filtration on a flat sheet cartridge (Sartorius, 100 kD MWCO) and then buffer exchanged by diafiltration into 50 mM Tris, 45 mM NaCl, 5% (w/v) sucrose, pH 7.5 (TSS). Alternatively, the final buffer exchange into TSS was completed with PD-10 desalting columns (GE). If required, formulations were concentrated by centrifugation with Amicon 100 kDa centrifugal filters (Millipore). The resulting mixture was then filtered using a 0.2 μm sterile filter. The final LNP was stored at 4° C. or −80° C. until further use.
# (§3) Additional PCR was performed per the manufacturer's protocols (Illumina) to add chemistry for sequencing. The amplicons were sequenced on an Illumina MiSeq instrument. The reads were aligned to a reference genome (e.g., the human reference genome (hg38), the cynomologus reference genome (mf5), the rat reference genome (rn6), or the mouse reference genome (mm10)) after eliminating those having low quality scores. The resulting files containing the reads were mapped to the reference genome (BAM files), where reads that overlapped the target region of interest were selected and the number of wild type reads versus the number of reads which contain an insertion, substitution, or deletion was calculated.
# (§4) The editing percentage (e.g., the “editing efficiency” or “percent editing” or “indel frequency”) is defined as the total number of sequence reads with insertions/deletions (“indels”) or substitutions over the total number of sequence reads, including wild type.
# (§5) Lipid nanoparticle formulations of modified sgRNAs targeting human TTR and the cyno matched sgRNA sequences were tested on primary human hepatocytes and primary cyno hepatocytes in a dose response curve. Primary human and cyno hepatocytes were plated as described in Example 1. Both cell lines were incubated at 37° C., 5% CO2 for 24 hours prior to treatment with LNPs. The LNPs used in the experiments detailed in Tables 20-22 were prepared using the cross-flow procedure described above but purified using PD-10 columns (GE Healthcare Life Sciences) and concentrated using Amicon centrifugal filter units (Millipore Sigma), each containing the specified sgRNA and Cas9 mRNA (SEQ ID NO:1). […] LNPs were incubated in hepatocyte maintenance media containing 6% cyno serum at 37° C., 5% CO2 for 5 minutes. […]
# TTR [2] = assay: TTR editing dose response (EC50, maximum editing) in primary cyno hepatocytes treated with LNP formulated U-depleted Spy Cas9 mRNA and sgRNAs; format: cell-based, cynomolgus monkey
# Procedure: as §1, §2, §3, §4, §5
# TTR [3] = assay: TTR editing in primary cyno hepatocytes treated with LNP formulated Spy Cas9 mRNA (SEQ ID NO: 2) and sgRNAs, 12.5 ng mRNA; format: cell-based, cynomolgus monkey; conditions: LNP formulated Spy Cas9 mRNA (SEQ ID NO: 2) and cyno matched sgRNA, lysed 72 hours post treatment
# Procedure: as §1
# In general, the lipid nanoparticle components were dissolved in 100% ethanol with the lipid component of various molar ratios. The RNA cargos were dissolved in 25 mM citrate, 100 mM NaCl, pH 5.0, resulting in a concentration of RNA cargo of approximately 0.45 mg/mL. The LNPs were formulated with a lipid amine to RNA phosphate (N:P) molar ratio of about 4.5 or about 6, with the ratio of mRNA to gRNA at 1:1 by weight.
# The LNPs were formed by microfluidic mixing of the lipid and RNA solutions using a Precision Nanosystems NanoAssemblr™ Benchtop Instrument, according to the manufacturer's protocol. A 2:1 ratio of aqueous to organic solvent was maintained during mixing using differential flow rates. […]
# as §3, with “The amplicons were sequenced on an Illumina MiSeq instrument.” left out
# The editing percentage (e.g., the “editing efficiency” or “percent editing” or “indel frequency”) is defined as the total number of sequence reads with insertions/deletions (“indels”) or substitutions over the total number of sequence reads, including wild type. […]
# TTR mRNA = TTR mRNA knockdown (quantitative PCR) in primary human hepatocytes treated with LNPs; format: cell-based; conditions: PHH; LNP dose 300 ng mRNA cargo; gRNA:mRNA 1:2; 96 h; biological triplicates; vs untreated control
# Procedure: In one experiment, PHH were cultured and treated with LNPs comprising Cas9 mRNA (SEQ ID NO:1) and a gRNA of interest (See FIG. 29, Table 36), as described in Example 4. The LNPs were prepared using the cross-flow procedure described above and purified and concentrated using PD-10 columns and Amicon centrifugal filter units, respectively. The LNPs were formulated with an N:P ratio of 6.0 and contained Lipid A, Cholesterol, DSPC, and PEG2k-DMG in a 50:38:9:2 molar ratio, respectively. The LNPs comprised a gRNA:mRNA ratio of 1:2, and the cells were treated at a dose of 300 ng (with respect to the amount of mRNA cargo delivered).
# (§6) Ninety-six (96) hours following LNP treatment (with biological triplicates for each condition), mRNA was purified from PHH cells using the Dynabeads mRNA DIRECT Kit (ThermoFisher Scientific) according to the manufacturer's protocol. Reverse Transcription (RT) was performed with Maxima reverse transcriptase (ThermoFisher Scientific) and a poly-dT primer. The resulting cDNA was purified with Ampure XP Beads (Agencourt). For Quantitative PCR, 2% of the purified cDNA was amplified with Taqman Fast Advanced Mastermix and 3 Taqman probe sets, TTR (Assay ID: Hs00174914_m1), GAPDH (Assay ID: Hs02786624_g1), and PPIB (Assay ID: Hs00168719_m1). The assays were run on the QuantStudio 7 Flex Real Time PCR System according to the manufacturer's instructions (Life Technologies). Relative expression of TTR mRNA was calculated by normalizing to the endogenous controls (GAPDH and PPIB) individually, and then averaged.
# The groups in FIG. 29 and Table 36 are identified by the gRNA ID used in each LNP preparation.
# In a separate experiment, TTR mRNA knockdown was evaluated following treatment with LNPs comprising G000480, G000486, and G000502. The LNPs were formulated and PHH were cultured and treated with the LNPs, each as described in the experiment above in this Example with the exception that the cells were treated at a dose of 100 ng (with respect to the amount of mRNA cargo delivered).
# as §6, with “(single treatment” for “(with biological triplicates”, “the High Capacity cDNA Reverse Transcription Kit” for “Maxima reverse transcriptase”, “according to the manufacturer's instructions.” for “and a poly-dT primer. The resulting cDNA was purified with Ampure XP Beads (Agencourt).”, “the” for “the purified”
# The groups in FIG. 30 and Table 37 are identified by the gRNA ID used in each LNP preparation.
# [4] = tested on: potential off-target genomic sites; assay: Off-target analysis by oligo insertion based assay in primary human hepatocytes (sgRNAs); format: cell-based; conditions: 100 ng Cas9 mRNA, 25 nM sgRNA, 12.5 nM donor oligo, 48 h
# Procedure: Off-target analysis of sgRNAs targeting TTR was performed in primary human hepatocytes (PHH) as described in Example 5, with the following modifications. PHH were plated at a density of 33,000 cells per well on collagen-coated 96-well plates as described in Example 1. Twenty-four hours post plating, cells were washed with media and transfected using Lipofectamine RNAiMAX (ThermoFisher, Cat. 13778150) as described in Example 1. Cells were transfected with a lipoplex containing 100 ng Cas9 mRNA, immediately followed by the addition of another lipoplex containing 25 nM of the sgRNA and 12.5 nM of the donor oligo (0.3 μL/well). Cells were lysed 48 hours post-transfection and gDNA was extracted and analyzed as further described in Example 5. The data is graphically represented in FIG. 20.
# Fewer sites were detected in PHH for every guide tested as compared to the HekCas9 cell line, with no unique sites detected in PHH alone.
# [5] = LNP with U-depleted Spy Cas9 mRNA and cyno specific sgRNA, 8 point 3-fold dose response starting at 300 ng mRNA, 72 hours
# [6] = LNP formulated U-depleted Spy Cas9 mRNA and cyno specific sgRNAs
# [7] = LNP formulated U-depleted Spy Cas9 mRNA and human specific sgRNAs
Molecule,Max Editing (TTR [1]; [5]) [%],Max Editing (TTR [2]; [6]) [%],Max Editing (TTR [2]; [7]) [%],"12.5 ng mRNA, 3.9 nM sgRNA, Avg % Edit (TTR [3]) [%]","Max Editing (TTR [1]; LNP formulated U-depleted Spy Cas9 mRNA and human specific sgRNAs, dose response) [%]",Avg % Knockdown (TTR mRNA) (TTR mRNA) [%],# Sites in PHH (off-target integration sites detected) [4]
B1,89.49,99.18,89.49,60.13,,,
B2,13.48,99.97,13.48,,,,
B3,,,,61.87,,,
B4,,,,74.47,,,
B5,,,97.03,,71.28,96.17,1
